Test results reported in article doi:10.1101/2025.02.13.638105.
Like-named read-outs stand apart in the source and are kept apart here.

Tests used:
[1] = target: human recombinant wildtype neurofibromin isoform I (human) (UniProt P21359); experiment: cryo-EM structure
[2] = target: human recombinant wildtype neurofibromin isoform I (human) (UniProt P21359); experiment: cryo-EM structure; remark: listed apart in the source

- stoichiometry N [1]: 2
- dimers per tetramer (counts of single particles) [2]: 4
- stoichiometry N [2]: 4
Substance: human recombinant wildtype neurofibromin isoform I, P21359-2 1-2818
